This note sets out measurements from US20190183138.

Series [1] deals with bovine α-casein.
The target in series [2] is T1, bovine β-casein (UniProt P02666).
T1 sequence: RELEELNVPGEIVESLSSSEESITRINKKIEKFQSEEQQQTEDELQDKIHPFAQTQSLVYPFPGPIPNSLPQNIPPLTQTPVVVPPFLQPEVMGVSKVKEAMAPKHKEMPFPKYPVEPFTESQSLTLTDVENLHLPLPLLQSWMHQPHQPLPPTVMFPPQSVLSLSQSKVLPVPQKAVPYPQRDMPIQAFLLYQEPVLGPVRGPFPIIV

The target in series [3] is bovine κ-casein (UniProt P02668).
Chain of bovine κ-casein (P02668 22-190): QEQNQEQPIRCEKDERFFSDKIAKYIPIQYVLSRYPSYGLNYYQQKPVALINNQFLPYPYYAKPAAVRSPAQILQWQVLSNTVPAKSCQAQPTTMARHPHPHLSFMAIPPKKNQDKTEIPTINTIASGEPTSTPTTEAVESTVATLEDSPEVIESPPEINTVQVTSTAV

On to “Cynanchum otophyllum Schneid. protease QA (identified as asclepain of Asclepias Linn.)”, for which the “hydrolysis of isolated casein as a function of time (SDS-PAGE)” value (shortened to “hydrolysis of isolated casein”) in series [1] is given as “α-casein was only partially hydrolyzed”. Also, the “hydrolysis of isolated casein” value in series [2] is “β-Casein and κ-casein were completely hydrolyzed after 4 h of incubation”. Besides, in series [3], the Km was determined as 0.397 ± 0.002 mg/mL, the “hydrolysis of isolated casein” value is listed as “hydrolysis by QA required almost 4 h”, the kcat (min) amounted to 1.66 s⁻¹ and the kcat./Km [mL/(mg · min)] (mL/(mg · min)) stood at 251 ± 6.11.

Consider “Cynanchum otophyllum Schneid. protease QC (identified as cysteine protease B of Calotropis R. Br.)”, for which the “hydrolysis of isolated casein” value in series [1] is “α-casein was only partially hydrolyzed”. For the same substance, the “hydrolysis of isolated casein” value in series [2] was “The QC also exhibited a higher rate of hydrolysis than QA for β-casein and κ-casein”. For the same substance, in series [3], the Km was 1.708 ± 0.014 mg/mL, the “hydrolysis of isolated casein” value was “Most of the κ-casein was hydrolyzed by QC after 30 min of incubation”, the kcat (min) turned out to be 1.39 s⁻¹ and the kcat./Km [mL/(mg · min)] (mL/(mg · min)) worked out at 49 ± 1.93.

Broadly, the Km is the substrate concentration at which the rate is half of its maximum.
